Numbering of substitutions follows the chain as printed.
B1: rRmY clone SEQ 76 (ssRNA)
RNA: GGGAGAGGAGAGAACGUUCUACAACAAAGCAGGCUCAUAGUAAUAUGGAAGUCGCUGUCGAUCGAUCGAUCGAUG
modifications: 2'-OMe all C and U (rRmY)
B2: rRmY clone SEQ 80 (ssRNA)
RNA: GGGAGAGGAGAGAACGUUCUACAAGAUAUAAUUAAGGAUAAGUGCAAAGGAGACGCUGUCGAUCGAUCGAUCGAUG
modifications: 2'-OMe all C and U (rRmY)
B3: rRmY clone SEQ 83 (ssRNA)
RNA: GGGAGAGGAGAGAACGUUCUACGCAGGCUGUCGUAGACAAACGAUGAAGUCGCGCUGUCGAUCGAUCGAUCGAUG
modifications: 2'-OMe all C and U (rRmY)
B4: rRmY clone SEQ 88 (ssRNA)
RNA: GGGAGAGGAGAGAACGUUCUACAUAAGCAGGCUCCGAUAGUAUUCGGGAAGUCGCUGUCGAUCGAUCGAUCGAUG
modifications: 2'-OMe all C and U (rRmY)
B5: ARC1622 (mixed)
RNA: ACAGGCAAGUAAUUGGGGAGUGCGGGCGGGGUGU
modifications: 2'-OMe C,U and G16,G17,G24,G25,G30,G31; other A,G deoxy; PS 6-7,7-8,8-9,10-11,11-12,14-15; 3'-idT [PS 6-7,7-8,8-9,10-11,11-12,14-15; 2'-OMe at 2,6,10,13,14,16,17,21,23,24,25,27,30,31,32,34; other A,G deoxy; 3'-inverted dT at 35]
B6: ARC1755 (mixed)
RNA: B5 RNA
modifications: 2'-OMe C,U and most purines; PS 2-3,6-7,11-12,14-15; 3'-idT [2'-OMe C2,C6,U10,U13,U14,U21,C23,C27,U32,U34 and most purines (positions not stated); PS 2-3,6-7,11-12,14-15 (N = PS linkage, left out); 3'-inverted dT 35]
B7: B10.min4 (ssRNA)
RNA: GGAGCAUACACAAGAAGUGCUUCAUGCGGCAAACUGCAUGACGUCGAAUAGAUAUGCUCC
modifications: 2'-F all C and U (rRfY)
B8: F11.min2 (ssRNA)
RNA: GGACAUACACAAGAUGUGCUUGAGUUAAAUCUCAUCGUCCCCGUUUGGGGAUAUGUC
modifications: 2'-F all C and U (rRfY)
B9: A10.min5 (ssRNA)
RNA: GGAGCAUACACAAGAAGUUUUUUGUGCUCUGAGUACUCAGCGUCCGUAAGGGAUAUGCUCC
modifications: 2'-F all C and U (rRfY)
B10: AMX91-B8 (ssRNA)
RNA: GGGAAAAGCGAAUCAUACACAAGAAUCCUGGCUUCGCAUAGUGUAUGGGUAGUACGACAGCGCGUGCUCCGCCAGAGACCAACCGAGAA
modifications: 2'-F all C and U (rRfY)
B11: AMX84-C11 (ssRNA)
RNA: GGGAAAAGCGAAUCAUACACAAGAAUGGUCGGAAUCUCUGGCGCCACGCUGAGUAUAGACGGAAGCUCCGCCAGAGACCAACCGAGAA
modifications: 2'-F all C and U (rRfY)
B12: AMX86-D11 (ssRNA)
RNA: GGGAAAAGCGAAUCAUACACAAGAUAGCGUCUAUGAUGGCGGAGAAGCAAGUGUAGCAUAACAGGCUCCGCCAGAGACCAACCGAGAA
modifications: 2'-F all C and U (rRfY)
B13: AMX86-G10 (ssRNA)
RNA: GGGAAAAGCGAAUCAUACACAAGAGUCAUGGCUUACAAUUGAAACAAGAGCUCGCGUGACACAUGCUCCGCCAGAGACCAACCGAGAA
modifications: 2'-F all C and U (rRfY)
B14: ARC490 (mixed)
RNA: GGGAGAGGAGAGAACGUUCUACAGCCUUUUGGGUAAGGGGAGGGGUGCCGGUCGCUGUCGAUCGAUCGAUCGAUG
modifications: 2'-deoxy A and G, 2'-OMe C and U (dRmY)
B15: ARC489 (mixed)
RNA: GGGAGAGGAGAGAACGUUCUACAGCGCCGGUGGGCGGGCAUUGGGUGGAUGCGCUGUCGAUCGAUCGAUCGAUG
modifications: 2'-deoxy A and G, 2'-OMe C and U (dRmY)
B16: ARC491 (mixed)
RNA: B15 RNA with C35U, U42A
modifications: 2'-deoxy A and G, 2'-OMe C and U (dRmY)
B17: ARC1626 (mixed)
RNA: B5 RNA
modifications: 2'-OMe C,U and G16,G17,G24,G25,G30,G31; other A,G deoxy; multiple PS; 3'-idT [2'-OMe C2,C6,U10,U13,U14,G16,G17,U21,C23,G24,G25,C27,G30,G31,U32,U34; other A,G deoxy; PS 2-3,3-4,4-5,6-7,7-8,8-9,10-11,11-12,14-15,17-18,18-19,19-20,21-22,25-26,27-28,28-29,32-33 (N = PS linkage, left out); 3'-inverted dT 35]
B18: ARC1623 (mixed)
RNA: B5 RNA
modifications: 2'-OMe C,U and G16,G17,G24,G25,G30,G31; other A,G deoxy; PS 17-18,18-19,19-20,21-22; 3'-idT [2'-OMe C2,C6,U10,U13,U14,G16,G17,U21,C23,G24,G25,C27,G30,G31,U32,U34; other A,G deoxy; PS 17-18,18-19,19-20,21-22 (N = PS linkage, left out); 3'-inverted dT 35]

What follows are binders tested against T1, IL-23 (human, p19/p40 heterodimer) (Homo sapiens, UniProt Q9NPF7;P29460 SEQ:20-189,SEQ:23-328) (assay: filter; DPBS with Ca and Mg, 0.1 mg/mL tRNA, 30 min RT). Settings: tags: R&D Systems, carrier free; label: 32P.
Experimental: The selection progress was monitored using the dot blot sandwich filter binding assay as described in Example 1A. The 5′-³²P-labeled pool RNA was refolded at 90° C. for 3 minutes and cooled to room temperature for 10 minutes. Next, pool RNA (trace concentration) was incubated with h-IL-23 DPBS plus 0.1 mg/mL tRNA for 30 minutes at room temperature and then applied to a nitrocellulose and nylon filter sandwich in a dot blot apparatus (Schleicher and Schuell). The percentage of pool RNA bound to the nitrocellulose was calculated and monitored approximately every 3 rounds with a single point screen (+/−250 nM h-IL-23). Pool KD measurements were measured using a titration of h-IL-23 protein (R&D, Minneapolis, Minn.) and the dot blot apparatus as described above.
The rRmY h-IL-23 selection was enriched for h-IL-23 binding vs. the naïve pool after 4 rounds of selection (data not shown). The selection stringency was increased and the selection was continued for 8 more rounds. […] The rGmH selection was enriched over the naïve pool binding at Round 10. […] FIG. 7 is a binding curve of rRmY and rGmH pool selection binding to h-IL-23. The pools were cloned using TOPO TA cloning kit (Invitrogen, Carlsbad, Calif.) and individual sequences were generated and tested for binding. A single point binding screen was initially performed on all crude rRmY clone transcriptions using a 1:200 dilution, +/−200 nM IL-23, plus 0.1 mg/mL competitor tRNA. […] The 10 point screen was performed using zero to 480 nM IL-23 in 3 fold serial dilutions. Binding curves were generated (KaleidaGraph v. 3.51, Synergy Software) and KDs were estimated by fitting the data to the equation: fraction RNA bound=amplitude[h-IL-23]/KD+[h-IL-23]). […] There was one group of 6 duplicate sequences and 4 pairs of 2 duplicate sequences out of the rRmY clones generated. […] Clones were also tested from 48 crude rGmH clone transcriptions at a 1:200 dilution and 0.1 mg/mL tRNA was used as competitor.

T1 sequence (Q9NPF7 20-189, chain 1 of 2): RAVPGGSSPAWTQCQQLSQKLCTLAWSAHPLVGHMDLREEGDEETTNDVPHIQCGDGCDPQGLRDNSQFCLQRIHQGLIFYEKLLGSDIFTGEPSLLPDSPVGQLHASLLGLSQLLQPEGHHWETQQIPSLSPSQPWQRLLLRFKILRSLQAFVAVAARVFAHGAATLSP
T1 sequence (P29460 23-328, chain 2 of 2): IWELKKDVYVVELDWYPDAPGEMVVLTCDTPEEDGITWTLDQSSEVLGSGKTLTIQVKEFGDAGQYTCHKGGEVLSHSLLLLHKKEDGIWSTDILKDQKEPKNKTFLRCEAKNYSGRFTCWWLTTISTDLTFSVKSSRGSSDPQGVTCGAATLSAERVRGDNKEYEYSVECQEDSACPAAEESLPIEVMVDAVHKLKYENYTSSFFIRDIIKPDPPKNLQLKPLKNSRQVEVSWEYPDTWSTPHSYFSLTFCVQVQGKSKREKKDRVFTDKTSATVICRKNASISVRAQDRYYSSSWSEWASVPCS

Binder | Kd
B1 | 77.2 nM
B2 | 3790 nM
B3 | 8.2 nM
B4 | 101 nM

The binders below were run against T1, IL-23 (human, p19/p40 heterodimer) (assay: filter; DPBS Ca Mg). Settings: tags: R&D Systems, carrier free.
Experimental: The dot blot binding assay previously described was used to characterize the relative potency of the majority of the aptamers synthesized. For KD determination, chemically synthesized aptamers were purified using denaturing polyacrylamide gel electrophoresis, 5′end labeled with γ-³²P ATP and were tested for direct binding to full human IL-23. An 8 point protein titration was used in the dot blot binding assay (either {100 nM, 30 nM, 10 nM, 3 nM, 1 nM, 300 pM, 100 pM, 0 pM} or {10 nM, 3 nM, 1 nM, 300 pM, 100 pM, 30 pM, 10 pM, 0 pM}) in Dulbecco's PBS (with Mg⁺⁺ and Ca⁺⁺) with 0.1 mg/mL BSA. KD values were calculated by fitting the equation y=(max/(1+K/protein))+yint using KaleidaGraph (KaleidaGraph v. 3.51, Synergy Software). Sequences of the ARC979 derivatives synthesized, purified and assayed for binding to IL-23 as well as the results of the protein binding characterization are tabulated below in Tables 29 and 30.

Binder | Kd
B5 | 0.3 nM
B6 | 0.8 nM

The binders below were run against T1, IL-23 (human, p19/p40 heterodimer) (assay: filter; 0.1 mg/mL tRNA, 30 min RT). Settings: tags: R&D Systems, carrier free; label: 5'-32P.
Experimental: (§1) Monitoring Progress of rRfY Selection. Dot blot binding assays were performed throughout the selections to monitor the protein binding affinity of the pools. Trace ³²P-labeled RNA was combined with a dilution series of h-IL-23 and incubated at room temperature for 30 minutes in 1×SHMCK (20 mM Hepes, 120 mM NaCl, 5 mM KCl, 1 mM MgCl₂, 1 mM CaCl₂, pH 7.4) plus 0.1 mg/mL tRNA for a final volume of 20 μL. The binding reactions were analyzed by nitrocellulose filtration using a Minifold I dot-blot, 96-well vacuum filtration manifold (Schleicher & Schuell, Keene, N.H.). A three-layer filtration medium was used, consisting (from top to bottom) of Protran nitrocellulose (Schleicher & Schuell), Hybond-P nylon (Amersham Biosciences) and GB002 gel blot paper (Schleicher & Schuell). RNA that is bound to protein is captured on the nitrocellulose filter, whereas the non-protein bound RNA is captured on the nylon filter. The gel blot paper was included simply as a supporting medium for the other filters. Following filtration, the filter layers were separated, dried and exposed on a phosphor screen (Amersham Biosciences, Piscataway, N.J.) and quantified using a Storm 860 Phosphorimager® blot imaging system (Amersham Biosciences).

Binder | Kd
GGAGUACGCCGAAAGGCGCUUCCGAAAGGACGUCCGUAAGGGAUACUCC (ssRNA, 2'-F all C and U (rRfY)) [Type 1.5] | 31.4 nM
B7 | 36.4 nM
B8 | 65 nM
B9 | 57.8 nM

Each binder was assayed against T2, IL-12 (human, p35/p40 heterodimer) (Homo sapiens, UniProt P29459;P29460 SEQ:57-253,SEQ:23-328) (assay: filter; 1X SHMCK, 0.1 mg/mL tRNA, RT). Settings: label: 5'-32P.
Experimental: as §1
(§2) When a significant positive ratio of binding of RNA in the presence of h-IL-23 versus in the absence of h-IL-23 was seen, the pools were cloned using a TOPO TA cloning kit (Invitrogen, Carlsbad, Calif.) according to the manufacturer's instructions. For the h-IL-23 and X-IL-23 selections, the Round 8 pool templates were cloned, and 32 individual clones from each selections were assayed in a 1-point dot blot screen (+/−75 nM h-IL-23, as well as a separate screen at +/−75 nM h-IL-12). For the PN-IL-23 selection, the Round 10 pool was cloned and sequenced, and 8 unique clones were assayed for protein binding in a 1-point dot blot screen (+/−200 nM h-IL-23 and a separate screen at +/−200 nM h-IL-12). Subsequently, the Round 10 PN-IL-23 pool was re-cloned for further sequences, as well as the R12 PN-IL-23 pool, and the clones were assayed for protein binding in a 1 point do blot screen (+/−100 nM h-IL-23 or +/−200 nM h-IL-12).

T2 sequence (P29459 23-219, chain 1 of 2): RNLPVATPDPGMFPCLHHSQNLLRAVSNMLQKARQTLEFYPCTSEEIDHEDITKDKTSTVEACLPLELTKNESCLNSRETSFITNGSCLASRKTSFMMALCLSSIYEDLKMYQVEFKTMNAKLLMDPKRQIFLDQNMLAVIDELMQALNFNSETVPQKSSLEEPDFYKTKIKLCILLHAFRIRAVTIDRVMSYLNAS
T2 sequence (P29460 23-328, chain 2 of 2): as the sequence (P29460 23-328, chain 2 of 2) above

Binder | Kd
B10 | 409 nM
B11 | 286 nM
B12 | 114 nM
B13 | 356 nM

These binders were tested against T2, IL-12 (human, p35/p40 heterodimer) (assay: filter; 1X PBS, tRNA, ssDNA, BSA, 30 min RT). Settings: label: 32P.

Binder | Kd
B14 | 37.1 nM
B15 | 17.2 nM
B16 | 93 nM

The binders below were run against T1, IL-23 (human, p19/p40 heterodimer) (assay: filter; 1X PBS, tRNA, ssDNA, BSA, 30 min RT). Settings: tags: R&D Systems, carrier free; label: 32P.

Binder | Kd
B14 | 26 nM
B15 | 4 nM
B16 | 17.1 nM

The binders below were run against T1, IL-23 (human, p19/p40 heterodimer) (assay: filter; 1X SHMCK, 1 mM Mg, 1 mM Ca, 0.1 mg/mL tRNA, RT). Settings: tags: R&D Systems, carrier free; label: 5'-32P.
Experimental: as §1, §2

Binder | Kd
B10 | 17.6 nM
B11 | 15.5 nM
B12 | 199 nM
B13 | 73.7 nM

Each binder was assayed against T1, IL-23 (human, p19/p40 heterodimer) (assay: cell_activity; Pathscan pSTAT3). Settings: tags: R&D Systems, carrier free.
Experimental: Inhibition of IL-23-induced STAT3 phosphorylation was measured using the Pathscan® Phospho-STAT3 (Tyr705) Sandwich ELISA Kit (Cell Signaling Technology, Beverly, Mass.).
Similar to the TransAM™ Assay method previously described, the Pathscan® Phospho-STAT3 (Tyr705) Sandwich ELISA Kit detects endogenous levels of Phospho-STAT3 (Tyr705) protein by using a STAT3 rabbit monoclonal antibody which has been coated onto the wells of a 96-well plate. After incubation with cell lysates, both nonphospho- and phospho-STAT3 proteins are captured by the coated antibody. A phospho-STAT3 mouse monoclonal antibody is added to detect the captured phospho-STAT3 protein, and an HRP-linked anti-mouse antibody is then used to recognize the bound detection antibody. HRP substrate, TMB, is added to develop color, and the magnitude of optical density for this developed color is proportional to the quantity of phospho-STAT3 protein.
PHA Blasts were isolated and prepared as described above and treated with hIL-23 at a final constant concentration of 6 ng/mL (R&D Systems, Minneapolis, Minn.) to induce STAT3 activation, instead of using 3 ng/mL as previously described with the TransAM™ assay. Clones were screened by using a 6-point […] titration from 0 to 700 nM in 3 fold dilutions in combination with a constant IL-23 concentration of 6 ng/mL of IL-23 (R&D Systems, Minneapolis, Minn.) to induce STAT3 activation, instead of using 3 ng/mL as previously described with the TransAM™ assay. Lysates of treated cells were prepared using the buffers provided by the Pathscan kit, and the assay was run according to the manufacturer's instructions. IC₅₀s for the full length clones were calculated from the dose response curves.

Binder | IC50
B5 | 9 nM
B17 | 12 nM
B18 | 5 nM
B6 | 68 nM

Reference: patent US20060193821, “Aptamers to the human IL-12 cytokine family and their use as autoimmune disease therapeutics” (published 2006)
